Numbering of substitutions follows the chain as printed.

T1: human FcγRIIb extracellular domain (human, UniProt P31994 43-217)
T1 construct: extracellular domain; also called hFcγR IIb
T1 sequence (looked up): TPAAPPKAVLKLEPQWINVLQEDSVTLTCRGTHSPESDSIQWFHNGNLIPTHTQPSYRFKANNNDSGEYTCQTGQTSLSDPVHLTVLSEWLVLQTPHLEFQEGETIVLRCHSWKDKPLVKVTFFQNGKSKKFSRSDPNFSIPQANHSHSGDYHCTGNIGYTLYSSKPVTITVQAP

T2: hFcγRIIaH on hFcγRIIaH-expressing Jurkat cells (human, UniProt P12318 34-317)
T2 sequence (looked up): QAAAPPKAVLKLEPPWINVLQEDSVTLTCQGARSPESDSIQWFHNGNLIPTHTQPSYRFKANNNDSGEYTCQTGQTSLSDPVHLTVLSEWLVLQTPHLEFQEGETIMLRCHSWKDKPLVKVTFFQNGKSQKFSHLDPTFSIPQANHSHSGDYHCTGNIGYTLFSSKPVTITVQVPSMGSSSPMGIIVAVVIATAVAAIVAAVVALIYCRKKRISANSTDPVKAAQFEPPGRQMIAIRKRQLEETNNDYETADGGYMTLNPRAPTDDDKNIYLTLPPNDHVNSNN

T3: human FcγRIIa R extracellular domain (human, UniProt P12318 34-217)
T3 construct: extracellular domain; also called hFcγR IIa R
T3 sequence (looked up): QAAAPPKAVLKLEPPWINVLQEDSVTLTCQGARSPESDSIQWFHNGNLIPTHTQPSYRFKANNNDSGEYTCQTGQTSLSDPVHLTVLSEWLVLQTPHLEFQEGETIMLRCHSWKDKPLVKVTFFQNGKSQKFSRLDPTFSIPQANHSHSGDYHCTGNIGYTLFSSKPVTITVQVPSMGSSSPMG

T4: human FcγRIIa H extracellular domain (human, UniProt P12318 34-217)
T4 construct: extracellular domain; also called hFcγR IIa H
T4 sequence (looked up): T3 sequence (looked up) with R134H

B1: H240-Kn120/L73-k0//H240-Hl068/L73-k0 (antibody, human IgG1, kappa)
heavy 1: QDQLVQSGAEVKKPGASVKVSCKASGFNIKDTYIQWVRQAPGQGLEWMGRIDPLRKQTKYREKFEGRVTITADTSTNTAYMELSSLRSEDTAVYYCVRSGREFDYWGQGTLVTVSSASTKGPSVFPLAPSSKSTSGGTAALGCLVKDYFPEPVTVSWNSGALTSGVHTFPAVLQSSGLYSLSSVVTVPSSSLGTQTYICNVNHKPSNTKVDKKVEPKSCDKTHTCPPCPAPEYYWGPMVFLFPPKPKDTLMISRTPEVTCVVVDVSDEDPEVKFNWYVDGVEVHNAKTKPREEQYNATYRVVSVLTVLHQDWLNGKEYKCKVSNKDLPAPIEKTISKAKGQPREPQVCTLPPSRDELTKNQVSLWCLVKGFYPSDIAVEWESNGQPENNYKTTPPVLDSDGSFFLYSKLTVDKSRWQQGNVFSCSVMHEALHNHYTQKSLSLSP
heavy 2: QDQLVQSGAEVKKPGASVKVSCKASGFNIKDTYIQWVRQAPGQGLEWMGRIDPLRKQTKYREKFEGRVTITADTSTNTAYMELSSLRSEDTAVYYCVRSGREFDYWGQGTLVTVSSASTKGPSVFPLAPSSKSTSGGTAALGCLVKDYFPEPVTVSWNSGALTSGVHTFPAVLQSSGLYSLSSVVTVPSSSLGTQTYICNVNHKPSNTKVDKKVEPKSCDKTHTCPPCPAPELLGGPSVFLFPPKPKDTLMISRTPEVTCVVVDVSHEEPEVKFNWYVDGVEVHNAKTKPREEQYNSTYRVVSVLTVLHQDWLNGKEYKCKVSNDALPKPIEETISKAKGQPREPQVYTLPPSRCELTKNQVSLSCAVKGFYPSDIAVEWESNGQPENNYKTTPPVLDSDGSFFLVSKLTVDKSRWQQGNVFSCSVMHEALHNHYTQKSLSLSP
light: DIQMTQSPSSLSASVGDRVTITCRASQDIHKYIAWYQQKPGQAPRLLIQYTSTLQPGVPSRFSGSGSGTDYTFTISSLQPEDIATYYCLQYEQLRTFGGGTKVEIKRTVAAPSVFIFPPSDEQLKSGTASVVCLLNNFYPREAKVQWKVDNALQSGNSQESVTEQDSKDSTYSLSSTLTLSKADYEKHKVYACEVTHQGLSSPVTKSFNRGEC
notes: also called EGL-ART2; ART2
B2: H240-Kn456/L73-k0//H240-Hl446/L73-k0 (antibody, human IgG1, kappa)
heavy 1: B1 heavy 1 with Y233F, Y234Q, T249V, D269E, T306P, D326A, A329M, I331E
heavy 2: B1 heavy 2 with G235A, T249V, S297A, T306P, K329M, I331E
light: B1 light
notes: also called EGL-ART4; ART4
B3: H240-Kn462/L73-k0//H240-Hl445/L73-k0 (antibody, human IgG1, kappa)
heavy 1: B1 heavy 1 with Y233F, Y234Q, T249V, D269E, T306P, K325D, D326A
heavy 2: B1 heavy 2 with G235A, T249V, S297A, T306P, I331D
light: B1 light
notes: also called EGL-ART6; ART6
B4: H240-Kn125/L73-k0//H240-Hl076/L73-k0 (antibody, human IgG1, kappa)
heavy 1: B1 heavy 1 with Y234Q, D269E, D326A
heavy 2: B1 heavy 2 with K329M
light: B1 light
notes: Anti-human Epiregulin heterodimerized IgG1 Fc variant; also called EGL-ART1; ART1

T7 sequence (P08637 17-208): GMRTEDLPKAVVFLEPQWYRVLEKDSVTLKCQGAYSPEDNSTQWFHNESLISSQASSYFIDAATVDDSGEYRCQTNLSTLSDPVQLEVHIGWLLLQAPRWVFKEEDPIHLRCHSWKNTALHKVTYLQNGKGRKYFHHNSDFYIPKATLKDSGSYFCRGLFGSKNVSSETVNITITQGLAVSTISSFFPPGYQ
T6 sequence (P12314 16-292): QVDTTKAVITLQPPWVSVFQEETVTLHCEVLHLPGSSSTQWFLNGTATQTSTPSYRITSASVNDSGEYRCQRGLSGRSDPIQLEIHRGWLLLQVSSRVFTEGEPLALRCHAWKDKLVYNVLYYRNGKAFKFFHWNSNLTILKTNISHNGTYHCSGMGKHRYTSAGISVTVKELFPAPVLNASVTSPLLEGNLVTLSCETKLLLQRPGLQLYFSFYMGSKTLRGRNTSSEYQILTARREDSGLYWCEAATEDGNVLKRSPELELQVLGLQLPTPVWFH

In one experiment the target is T1, human FcγRIIb extracellular domain. Put plainly: SPR Biacore 8K+, antibody captured, FcγR as analyte, steady state affinity model.
Method: (§1) The interaction between the produced antibodies and human FcγRs was analyzed using Biacore 8K+ by the method below. For the running buffer, 50 mM Na-Phosphate, 150 mM NaCl, and 0.05% Tween20 (pH 7.4) was used, and measurement was performed at 25° C. The sensor chip used was a Series S SA chip (GE Healthcare) onto which CaptureSelect Human Fab-kappa Kinetics Biotin Conjugate (Thermo Fisher Scientific) was immobilized. An antibody of interest was captured onto this chip, and each FcγR diluted with the running buffer was allowed to interact with it. The chip was regenerated using 10 mM Glycine-HCl (pH 1.5), and repeatedly used to capture antibodies and perform measurement. The dissociation constants KD (mol/L) of each antibody for FcγRs were calculated using Biacore Insight Evaluation Software, with a steady state affinity model for the dissociation constant for FcγRIIb and a 1:1 Langmuir binding model for the dissociation constants for the other FcγRs (Table 48).
B1 registered a Kd of 440 nM.

In the case of B2, the Kd amounted to 11700 nM.

B3 registered a dissociation constant (Kd) of 2920 nM.

Turning to B4, the Kd came to 12500 nM.

Another experiment concerns the target T2, hFcγRIIaH on hFcγRIIaH-expressing …. Put plainly: cell-based or functional assay.
Regarding B1, the “EC50 value (hFcγRIIaH ADCP Reporter Bioassay, Hepa1-6/hEREG target cells)” value is 0.0218 µg/mL.

On to B2, for which the “EC50 value (hFcγRIIaH ADCP Reporter Bioassay, Hepa1-6/hEREG target cells)” value is 0.0432 µg/mL.

For B3, the “EC50 value (hFcγRIIaH ADCP Reporter Bioassay, Hepa1-6/hEREG target cells)” value amounted to 0.0192 µg/mL.

As to B4, the “EC50 value (hFcγRIIaH ADCP Reporter Bioassay, Hepa1-6/hEREG target cells)” value was found to be 0.0353 µg/mL.

In another experiment the target is T3, human FcγRIIa R extracellular domain. Put plainly: SPR Biacore 8K+, antibody captured, FcγR as analyte, 1:1 Langmuir model.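 Note: antibodies captured on a streptavidin chip through a biotinylated anti-human Fab kappa reagent, with FcγR extracellular domains injected in pH 7.4 phosphate buffer at 25 °C.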
B1 showed a dissociation constant Kd of 33.8 nM.

B2 showed an equilibrium dissociation constant (Kd) of 518 nM.

For B3, binding was characterised by a dissociation constant (Kd) of 68.9 nM. This Kd is about 7.5-fold lower than that of the molecule before.

On to B4, for which the dissociation constant Kd came out at 1010 nM. This Kd lies about 15-fold higher than the previous one.

The next experiment deals with T4, human FcγRIIa H extracellular domain. The description is as above.
As to B1, binding was put at a Kd of 76.4 nM.

Take B2: the affinity, expressed as Kd, was 179 nM. Compared with the last molecule, the Kd is about 2.3-fold higher.

With B3, the Kd is 9.52 nM.

Regarding B4, the affinity, expressed as Kd, was 264 nM. This Kd is about 28-fold higher than that of the molecule before.

The target of the next experiment is T5, human FcγRIIIa V extracellular domain (human, UniProt P08637 17-208).
T5 construct: extracellular domain; also called hFcγR IIIa V
T5 sequence (P08637 17-208 F176V limits assumed): as the sequence (P08637 17-208) above, with F160V counted along it
The description is as above.
In the case of B1, binding was put at a Kd of 1.67 nM.

Regarding B2, binding was put at a Kd of 0.775 nM.

Molecule B3 came in with a dissociation constant Kd of 1.11 nM.

Consider B4, for which the dissociation constant Kd was found to be 1.11 nM.

A further experiment addresses T6, human FcγRIa extracellular domain (human, UniProt P12314 16-292).
T6 construct: extracellular domain; also called hFcγR Ia; hFcγRIa
The description is as above.
The molecule B1 displayed a Kd of 0.0264 nM.

B2 yielded a Kd of 0.0305 nM.

In the case of B3, binding was characterised by a dissociation constant (Kd) of 0.0737 nM.

B4: the Kd came out at 0.0302 nM.

Another experiment concerns the target T7, human FcγRIIIa F extracellular domain (human, UniProt P08637 17-208).
T7 construct: extracellular domain; also called hFcγR IIIa F
The description is as above.
Turning to B1, the equilibrium dissociation constant (Kd) was 6.43 nM.

Consider B2, for which binding was put at a Kd of 1.17 nM. Against the preceding molecule, the Kd is about 5.5-fold lower.

As to B3, the Kd stood at 3 nM.

B4 returned a Kd of 2.53 nM.

For a further experiment, the target named is T3, human FcγRIIa R extracellular domain. Kind of experiment: SPR Biacore 8K+; KD for FcγRIIb divided by KD for this FcγR.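 Note: antibodies captured on an anti-human Fab kappa SA chip with soluble human FcγR ectodomains flowed over, FcγRIIb KD from steady-state fit, other FcγR KD from Langmuir model.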
Method: as §1
As for B1, the “A/I ratio (KD for FcγRIIb divided by KD for each FcγR)” value was determined as 13.

For B2, the “A/I ratio (KD for FcγRIIb divided by KD for each FcγR)” value was determined as 22.5.

Regarding B3, the “A/I ratio (KD for FcγRIIb divided by KD for each FcγR)” value came out at 42.4.

For the molecule B4, the “A/I ratio (KD for FcγRIIb divided by KD for each FcγR)” value amounted to 12.4.

For another experiment, the target named is T4, human FcγRIIa H extracellular domain. The experiment is described as above.
Method: as §1
On to B1, for which the “A/I ratio (KD for FcγRIIb divided by KD for each FcγR)” value amounted to 5.8.

As to B2, the “A/I ratio (KD for FcγRIIb divided by KD for each FcγR)” value was 65.2.

In the case of B3, the “A/I ratio (KD for FcγRIIb divided by KD for each FcγR)” value was 307.

For B4, the “A/I ratio (KD for FcγRIIb divided by KD for each FcγR)” value is 47.4.

A further experiment deals with T5, human FcγRIIIa V extracellular domain. The description is as above.
Method: as §1
Consider B1, for which the “A/I ratio (KD for FcγRIIb divided by KD for each FcγR)” value came to 264.

Consider B2, for which the “A/I ratio (KD for FcγRIIb divided by KD for each FcγR)” value came out at 15000.

Regarding B3, the “A/I ratio (KD for FcγRIIb divided by KD for each FcγR)” value stood at 2630.

Consider B4, for which the “A/I ratio (KD for FcγRIIb divided by KD for each FcγR)” value was determined as 11300.

Another experiment concerns the target T7, human FcγRIIIa F extracellular domain. Described as above.
Method: as §1
Turning to B1, the “A/I ratio (KD for FcγRIIb divided by KD for each FcγR)” value turned out to be 68.4.

For B2, the “A/I ratio (KD for FcγRIIb divided by KD for each FcγR)” value is 9940.

For B3, the “A/I ratio (KD for FcγRIIb divided by KD for each FcγR)” value turned out to be 976.

As for B4, the “A/I ratio (KD for FcγRIIb divided by KD for each FcγR)” value is 4950.

The target of a further experiment is T1, human FcγRIIb extracellular domain. Put plainly: SPR Biacore 8K+; KD of G1d divided by KD of this antibody.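 Note: antibodies captured on an anti-Fab-kappa streptavidin chip, soluble FcγR ectodomains flowed over, KD by steady-state fit for FcγRIIb and Langmuir kinetic model for the other receptors.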
On to B1, for which the “Relative value to KD between G1d and hFcgRs” value (shortened to “Relative value”) stood at 22.8.

B2: the “Relative value” value was found to be 0.9.

Regarding B3, the “Relative value” value stood at 3.4.

On to B4, for which the “Relative value” value was 0.8.

A further experiment addresses T3, human FcγRIIa R extracellular domain. Described as above.
With B1, the “Relative value” value turned out to be 49.

With B2, the “Relative value” value came out at 3.2.

Regarding B3, the “Relative value” value is 24.1.

For the molecule B4, the “Relative value” value came to 1.6.

For the next experiment, the target named is T4, human FcγRIIa H extracellular domain. The description is as above.
On to B1, for which the “Relative value” value is 14.7.

Regarding B2, the “Relative value” value was determined as 6.3.

On to B3, for which the “Relative value” value was 118.

In the case of B4, the “Relative value” value is 4.3.

The target of another experiment is T5, human FcγRIIIa V extracellular domain. The experiment is described as above.
Regarding B1, the “Relative value” value was 215.

Take B2: the “Relative value” value stood at 462.

Consider B3, for which the “Relative value” value turned out to be 322.

B4: the “Relative value” value stood at 323.

A further experiment addresses T6, human FcγRIa extracellular domain. The experiment is described as above.
On to B1, for which the “Relative value” value is 3.4.

As to B2, the “Relative value” value stood at 2.9.

On to B3, for which the “Relative value” value turned out to be 1.2.

With B4, the “Relative value” value was 3.

The target in another experiment is T7, human FcγRIIIa F extracellular domain. The description is as above.
As for B1, the “Relative value” value worked out at 460.

For B2, the “Relative value” value came to 2520.

Consider B3, for which the “Relative value” value was 987.

B4: the “Relative value” value was found to be 1170.

The target of another experiment is hFcγRIIIaV on hFcγRIIIaV-expressing Jurkat cells (human, UniProt P08637 17-254). Kind of experiment: cell-based or functional assay.
hFcγRIIIaV on hFcγRIIIaV-expressing Jurkat cells, sequence (P08637 17-254, form in doubt): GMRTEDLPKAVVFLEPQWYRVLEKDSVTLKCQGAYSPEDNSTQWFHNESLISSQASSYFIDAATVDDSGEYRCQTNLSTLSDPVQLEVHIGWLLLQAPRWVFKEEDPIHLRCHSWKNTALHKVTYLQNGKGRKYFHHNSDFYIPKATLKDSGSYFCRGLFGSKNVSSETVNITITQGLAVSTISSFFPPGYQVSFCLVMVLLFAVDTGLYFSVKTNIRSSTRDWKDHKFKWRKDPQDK
Consider B1, for which the “EC50 value (hFcγRIIIaV ADCC Reporter Bioassay, Hepa1-6/hEREG target cells)” value came to 0.00135 µg/mL.

B2: the “EC50 value (hFcγRIIIaV ADCC Reporter Bioassay, Hepa1-6/hEREG target cells)” value is 0.000789 µg/mL.

With B3, the “EC50 value (hFcγRIIIaV ADCC Reporter Bioassay, Hepa1-6/hEREG target cells)” value came to 0.0015 µg/mL.

For the molecule B4, the “EC50 value (hFcγRIIIaV ADCC Reporter Bioassay, Hepa1-6/hEREG target cells)” value stood at 0.000716 µg/mL.

The values are drawn from patent US20260022175A1 (Chugai, published 2026).
